Test results from paper PMC6994035.

What was measured:
Experiment in all cases: EMSA
[1] = target: mcherry-Tet1CD (UniProt Q3URK3 1367-2039)
[2] = target: MBD-YFP (MBD of Mecp2) (UniProt Q9Z2D6 77-167)
[3] = target: Mbd4-Strep (UniProt Q9Z2D7 1-554)

Measured: binding result

Sequence of mcherry-Tet1CD (Q3URK3 1367-2039): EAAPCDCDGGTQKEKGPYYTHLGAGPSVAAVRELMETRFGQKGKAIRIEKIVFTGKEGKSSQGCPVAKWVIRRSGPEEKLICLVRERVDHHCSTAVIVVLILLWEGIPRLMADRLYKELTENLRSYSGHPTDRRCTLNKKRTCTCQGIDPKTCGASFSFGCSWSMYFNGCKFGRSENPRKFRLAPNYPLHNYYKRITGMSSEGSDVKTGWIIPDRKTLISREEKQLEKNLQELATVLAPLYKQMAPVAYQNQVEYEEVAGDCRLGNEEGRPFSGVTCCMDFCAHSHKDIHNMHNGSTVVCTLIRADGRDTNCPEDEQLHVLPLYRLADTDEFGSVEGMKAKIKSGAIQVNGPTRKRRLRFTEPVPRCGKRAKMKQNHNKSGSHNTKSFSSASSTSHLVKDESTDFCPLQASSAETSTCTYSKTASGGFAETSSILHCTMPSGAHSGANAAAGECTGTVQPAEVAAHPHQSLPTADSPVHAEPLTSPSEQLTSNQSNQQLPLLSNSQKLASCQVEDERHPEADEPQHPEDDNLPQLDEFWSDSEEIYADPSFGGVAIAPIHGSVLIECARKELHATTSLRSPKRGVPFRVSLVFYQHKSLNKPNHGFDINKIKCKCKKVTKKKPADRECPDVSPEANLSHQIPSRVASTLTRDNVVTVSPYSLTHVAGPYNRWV
Sequence of Mbd4-Strep (Q9Z2D7 whole entry): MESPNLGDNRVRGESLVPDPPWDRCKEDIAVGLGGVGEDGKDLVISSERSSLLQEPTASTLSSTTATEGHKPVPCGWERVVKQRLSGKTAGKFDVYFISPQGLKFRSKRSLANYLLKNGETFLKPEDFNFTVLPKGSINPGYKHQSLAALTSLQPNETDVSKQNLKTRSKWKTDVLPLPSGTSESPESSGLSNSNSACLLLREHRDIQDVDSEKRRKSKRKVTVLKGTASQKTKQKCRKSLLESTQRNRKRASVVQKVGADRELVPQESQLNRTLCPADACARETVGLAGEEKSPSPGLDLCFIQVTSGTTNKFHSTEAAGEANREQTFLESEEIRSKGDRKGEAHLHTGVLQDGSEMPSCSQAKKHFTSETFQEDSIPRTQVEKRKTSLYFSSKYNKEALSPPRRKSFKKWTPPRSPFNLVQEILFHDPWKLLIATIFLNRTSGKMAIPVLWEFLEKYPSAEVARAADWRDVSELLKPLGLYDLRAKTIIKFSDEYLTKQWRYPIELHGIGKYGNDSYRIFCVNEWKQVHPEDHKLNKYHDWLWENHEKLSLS
Sequence of MBD-YFP (MBD of Mecp2) (Q9Z2D6 77-167): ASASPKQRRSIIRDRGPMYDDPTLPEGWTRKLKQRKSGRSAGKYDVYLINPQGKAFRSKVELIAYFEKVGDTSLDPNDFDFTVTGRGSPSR

B1: mC:mC fully methylated CpG 42-mer (dsDNA)
DNA 1: CTCAACAACTAACTACCATCCGGACCAGAAGAGTCATCATGG
DNA 2: CCATGATGACTCTTCTGGTCCGGATGGTAGTTAGTTGTTGAG
modifications: 5mC at position 21 of both strands
binds: [1] | [2] | [3]
